The results in this text go back to US20020090682A1 (AMRAD OPERATIONS, published 2002).

Assay [1] deals with T1, IL-13Rα(NR4) expressed in CTLL cells (high affinity IL-13 receptor; cells also carry the IL-4 receptor) (murine, UniProt P16382 26-810). The assay is described as follows: unlabelled IL-13 competing with 125I-IL-13 for binding to CTLL cells expressing the IL-13Rα(NR4).
For assay [2], the target named is T1, IL-13Rα(NR4) expressed in CTLL cells …. Nature of the assay: Scatchard analysis of 125I-IL-13 binding to CTLL cells expressing the IL-13Rα(NR4). As for the experimental part: Data have been normalised to 1×10⁴ COS cells and 1×10⁶ CTLL cells and binding was carried out on ice for 2 to 4 hours.
A likely candidate based on previous studies is the IL-4Rα.

For assay [3], the target named is T2, murine NR4 (IL-13 receptor α-chain, IL-13Rα) expressed in COS cells (murine, UniProt O09030 27-424).
T2 construct: also called IL-13Rα(NR4)
T2 sequence: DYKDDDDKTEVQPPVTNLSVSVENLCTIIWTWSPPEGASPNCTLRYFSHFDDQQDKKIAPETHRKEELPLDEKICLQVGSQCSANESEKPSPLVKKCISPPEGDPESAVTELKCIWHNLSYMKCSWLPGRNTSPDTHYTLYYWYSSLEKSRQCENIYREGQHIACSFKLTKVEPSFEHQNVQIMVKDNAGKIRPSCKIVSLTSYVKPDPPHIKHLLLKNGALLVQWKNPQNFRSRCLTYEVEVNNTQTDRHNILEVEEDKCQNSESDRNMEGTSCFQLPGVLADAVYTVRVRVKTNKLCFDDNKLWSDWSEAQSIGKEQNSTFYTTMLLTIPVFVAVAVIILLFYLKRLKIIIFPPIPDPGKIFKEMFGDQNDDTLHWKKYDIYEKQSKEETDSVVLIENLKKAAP
Nature of the assay: Scatchard analysis of 125I-IL-13 binding to COS cells expressing NR4.

The term IC50 denotes the concentration needed to halve the response being measured. A higher IC50 goes with weaker potency in that assay. What is called Kd is a measure of binding affinity in units of concentration. Higher therefore signals weaker binding.

T1 sequence (P16382 26-810): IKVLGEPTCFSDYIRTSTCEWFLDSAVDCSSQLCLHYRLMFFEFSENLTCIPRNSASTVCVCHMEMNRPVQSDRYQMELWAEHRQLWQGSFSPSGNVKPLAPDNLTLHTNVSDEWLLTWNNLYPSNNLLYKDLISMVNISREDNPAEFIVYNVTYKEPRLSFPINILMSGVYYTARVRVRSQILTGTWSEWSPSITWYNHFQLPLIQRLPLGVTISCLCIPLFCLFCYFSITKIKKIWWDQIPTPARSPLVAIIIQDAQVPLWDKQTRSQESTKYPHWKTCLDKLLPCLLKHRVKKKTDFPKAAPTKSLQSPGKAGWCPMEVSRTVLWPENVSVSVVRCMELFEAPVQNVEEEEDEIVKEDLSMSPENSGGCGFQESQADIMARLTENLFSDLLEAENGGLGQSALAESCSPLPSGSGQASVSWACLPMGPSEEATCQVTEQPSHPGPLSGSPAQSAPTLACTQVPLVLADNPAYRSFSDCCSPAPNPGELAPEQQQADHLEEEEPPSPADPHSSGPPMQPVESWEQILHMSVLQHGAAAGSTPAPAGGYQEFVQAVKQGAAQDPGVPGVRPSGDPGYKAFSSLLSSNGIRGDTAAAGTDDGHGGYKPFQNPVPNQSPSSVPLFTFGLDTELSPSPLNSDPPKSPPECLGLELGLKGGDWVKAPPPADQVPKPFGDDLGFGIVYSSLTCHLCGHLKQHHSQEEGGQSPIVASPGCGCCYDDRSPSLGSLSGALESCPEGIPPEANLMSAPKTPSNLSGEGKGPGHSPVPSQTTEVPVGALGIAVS

B1: IL-13 (obtained commercially, R & D Systems) (ligand)
chain: APGPVPRSVSLPLTLKELIEELSNITQDQTPLCNGSMVWSVDLAAGGFCVALDSLTNISNCNAIYRTQRILHGLCNRKAPTTVSSLPDTKIEVAHFITKLLSYTKQLFRHGPF
modifications: Radioiodinated (125I, iodine monochloride method) in the labelled form.
notes: the receptor and the cells are murine; also called unlabelled IL-13
B1 gave an IC50 in assay [1] of about 0.3 nM. Further, the Kd is about 0.075 nM in assay [2] and 2 to 10 nM in assay [3].
